The chains are these.
B1: 26-40 (peptide)
peptide: KFVRSRRPRTASCAL
modifications: not fully specified
notes: also called mouse p19Arf library peptide, residues 26-40
B2: 6-20 (peptide)
peptide: LVTVRIQRAGRPLQE
modifications: not fully specified
notes: also called mouse p19Arf library peptide, residues 6-20
B3: 41-55 (peptide)
peptide: AFVNMLLRLERILRR
modifications: not fully specified
notes: also called mouse p19Arf library peptide, residues 41-55
B4: A1 peptide (human p14ARF 1-14, SEQ ID NO:26, MVRRFLVTLRIRRA) (peptide)
peptide: Ac-MVRRFLVTLRIRRA-NH2
notes: Synthetic peptide; also called human A1 (1-14)
B5: 21-35 (peptide)
peptide: RVFLVKFVRSRRPRT
modifications: not fully specified
notes: also called mouse p19Arf library peptide, residues 21-35
B6: H1 peptide (Hdm2 240-254, SEQ ID NO:27, SVSDQFSVEFEVESL) (peptide)
peptide: Ac-SVSDQFSVEFEVESL-NH2
notes: Synthetic peptide
B7: 11-25 (peptide)
peptide: IQRAGRPLQERVFLV
modifications: not fully specified
notes: also called mouse p19Arf library peptide, residues 11-25

Where no end group is shown, it is not given here.

One assay addresses T1, His-tagged Hdm2 210-304 (human, UniProt Q00987 210-304).
T1 construct: not shown: thrombin-cleavable poly-His tag from pET28a
In words: SPR (Biacore), His-tagged Hdm2 210-304 captured by anti-His antibody, mouse Arf peptide as analyte, reference cell subtracted. How it is done:
Surface Plasmon Resonance. Binding studies were performed using a Biacore 3000 surface plasmon resonance (SPR) instrument (Biacore, Inc.). A Tetra-His™ Antibody (Qiagen, Inc.; Cat. #34670) was covalently attached to a carboxymethylated gold surface (C-1 chip; Biacore, Inc.). The carboxymethyl groups on the surface were activated with N-ethyl-N-(3-dimethylaminopropyl) carbodiimide (EDC) and N-hydroxysuccinimide (NHS) and the antibody was attached at pH 7.4 in 20 mM sodium phosphate buffer, 150 mM NaCl (PBS). Reactive sites remaining on the surface were blocked by reaction with ethanolamine. The His-tagged ligand was attached to the antibody by injecting a […] solution of the ligand in 10 mM HEPES, 150 mM NaCl, pH 7.4 (HBS-N buffer, Biacore) at a flow rate of 10 μL/Min through the flow cell. A reference cell was prepared similarly except that no His-tagged ligand was added. Binding was measured by flowing the non-His-tagged analyte through the reference and ligand-containing flow cells in sequence. Prior to injection of ligands, the chip surfaces were equilibrated in HBS-N buffer. Changes in the SPR response due to solvent differences and the injection process were monitored by injection of HBS-N buffer alone. Regeneration of the chip surface to remove bound analyte and ligand was accomplished by two 100 μL injections of 10 mM glycine, pH 2.0 through both flow cells. Data reported is-the difference in SPR signal between the flow cell containing analyte and the reference cell. Duplicate injections were made and the SPR response values reported are the average of these two injections.
Two libraries of peptides 15 amino acids in length were synthesized based on the sequence of exon 1β of mouse p19^Arf and the entire sequence of human p14^Arf. The sequence for the first peptide in each library corresponded to the first 15 amino acids of the protein sequences. […] This approach yielded two libraries of overlapping peptides spanning mouse p19^Arf residues 1-64 and human p14^Arf residues 1-132. The ability of these peptides to bind Hdm2 fragments was determined using the surface plasmon resonance (SPR) technique with a Biacore 3000 instrument.
In general terms: SPR reads the build-up and loss of mass on a sensor chip optically.

In assay [1] the target is B6. In words: CD and 1H NMR titration. As for the experimental part:
(§1) CD spectra were recorded with an Aviv 62DS instrument in 5 mM potassium phosphate (pH 7.0) using a 1 mm cuvette. In FIG. 1A, A1 was 4.5 μM, molar ratios were: 1:0.0, 1:0.1, 1:0.6, 1:0.9, & 1:1.3. In FIG. 1B, H1 was 2.5 μM, molar ratios were: 1:0.2, 1:0.7, 1:1.0, & 1:1.3. Data was collected for 3 seconds in 1 nm steps and 10 scans were averaged for each spectrum. The appearance of a minimum in the CD spectra of the assemblies near […] and the increase in ellipticity near 200 nm is consistent with the formation of β-strand-containing structures.
(§2) An end point was reached when the molar ratio of A1:H1 was 1:1. For example, further additions of the H1 peptide led to the appearance of disordered spectral features consistent with unbound, free H1 peptide (inset, FIG. 6a). The Fourier transform infrared (FT-IR) spectrum of the co-assemblies confirms the CD results and allows the β-structures to be classified as anti-parallel β-strands on the basis of the absorbances at 1618 cm-1 and 1679 cm-1 (FIG. 7) [Casal, H. L.; Kohler, U.; Mantsch, H. H., Biochim Biophys Acta 957:11-20 (1988)]. In summary, the individually disordered A1 and H1 peptides self-assemble into supramolecular structures comprised of anti-parallel β-strands.

Assay [2] addresses B4. In words: CD titration, H1 peptide added stepwise to A1 peptide. How it is done: as §1, §2

The results in this text go back to patent publication US20040248198A1 (ST JUDE CHILDREN S RESEARCH HOSPITAL, published 2004).

T1 sequence (Q00987 210-304): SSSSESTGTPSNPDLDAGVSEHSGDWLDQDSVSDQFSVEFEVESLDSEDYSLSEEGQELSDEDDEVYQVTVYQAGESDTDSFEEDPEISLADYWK

In the case of B1, in the assay with His-tagged Hdm2 210-304, the binding result was “binds”.

Take B2: the binding result in the assay with His-tagged Hdm2 210-304 is listed as “binds”.

On to B3, for which, in the assay with His-tagged Hdm2 210-304, the binding result is listed as “no binding (tested: not given)”.

With B4, the “molar ratio A1:H1 at the end point of the titration” value in assay [1] worked out at 1 mol A1 per mol H1.

B5: the binding result in the assay with His-tagged Hdm2 210-304 was “binds”.

With B6, the binding result in assay [2] was “binds”.

For the molecule B7, in the assay with His-tagged Hdm2 210-304, the binding result is given as “no binding (tested: not given)”.
